Test results reported in patent US20130287807A1, “COMPOUNDS FOR TREATING SYMPTOMS ASSOCIATED WITH PARKINSON'S DISEASE” (priority 2008, published 2013).

Assays:
[1] = test system: monoclonal antibody MV-001; experiment: In vitro binding assay (ELISA), BSA-coupled peptides, parental antibody MV-001; parameters: species or system C57/B16 mice; settings: Table 1C; peptide-BSA on plate, compared to original epitope
Protocol: Peptides derived from Phage Display as well as variants thereof were coupled to BSA and bound to ELISA plates (1 μM; as indicated in the respective figures) and subsequently incubated with the monoclonal antibody that was used for the screening procedure to analyse binding capacity of identified peptides.
Legend to Table 1C: the binding capacity is coded by the following binding code: 1:X describes the dilution factor of the parental AB

[2] = test system: monoclonal antibody MV-001; experiment: In vitro inhibition assay (ELISA), MV-001 binding to original epitope; parameters: species or system C57/B16 mice; settings: Table 2C; OD at 10 ug peptide compared to original peptide
Protocol: Different amounts of peptides (concentrations ranging from 10 μg to 0.08 μg; serial dilutions; for MV-002: concentrations ranging from 5 μg to 0.03 μg; serial dilutions), derived from Phage Display were incubated with the monoclonal antibody that was used for the screening procedure. Peptides diminishing subsequent binding of the antibody to the original epitope coated on ELISA plates were considered as inhibiting in this assay.
Legend to Table 2C: the inhibition capacity is coded by the following code: Weak inhibition means more peptide is required to lower AB binding than with the original epitope; strong inhibition means similar peptide amounts are required for mimotope and original epitope for lowering AB binding. Mimotopes are compared to the original peptide as standard. OD at 10 ug peptide used in the assay is used to calculate the competition capacity compared to original peptide.

[3] = biological target: monoclonal antibody MV-001; experiment: ELISA on peptide-BSA; code 2 = medium binding, OD halfmax 1:4000-20000
[4] = biological target: monoclonal antibody MV-002; experiment: ELISA on peptide-BSA; code 3 = strong binding, OD halfmax 1:>320000

## CSEFKH [p4800]
[1]
  Binding Capacity: 3 (strong binding :>20000)
[2]
  Inhibition Capacity: 2 (strong inhibition (as original epitope; OD of 10 ug peptide below 2 times of original peptide))

## EELRHSVC [p4746]
[1]
  Binding Capacity: 3 (strong binding :>20000)
[2]
  Inhibition Capacity: 1 (Weaker than original epitope (OD of 10 ug peptide below 3 times of original peptide))

## QFKHDLC [p4391]
[1]
  Binding Capacity: 2 (medium binding :4000-20000)
[2]
  Inhibition Capacity: 1 (Weaker than original epitope (OD of 10 ug peptide below 3 times of original peptide))

## LPFRHGC [p4388]
[1]
  Binding Capacity: 2 (medium binding :4000-20000)
[2]
  Inhibition Capacity: 1 (Weaker than original epitope (OD of 10 ug peptide below 3 times of original peptide))

## TPFRHTC [p4384]
[1]
  Binding Capacity: 2 (medium binding :4000-20000)
[2]
  Inhibition Capacity: 1 (Weaker than original epitope (OD of 10 ug peptide below 3 times of original peptide))

## EEFKYSC [p4393]
[1]
  Binding Capacity: 2 (medium binding :4000-20000)
[2]
  Inhibition Capacity: 1 (Weaker than original epitope (OD of 10 ug peptide below 3 times of original peptide))

## SAFRHHC [p4387]
[1]
  Binding Capacity: 2 (medium binding :4000-20000)
[2]
  Inhibition Capacity: 1 (Weaker than original epitope (OD of 10 ug peptide below 3 times of original peptide))

## TSFRHGC [p4382]
[1]
  Binding Capacity: 2 (medium binding :4000-20000)
[2]
  Inhibition Capacity: 1 (Weaker than original epitope (OD of 10 ug peptide below 3 times of original peptide))

## CHEFRH [p4802]
[1]
  Binding Capacity: 3 (strong binding :>20000)
[2]
  Inhibition Capacity: 2 (strong inhibition (as original epitope; OD of 10 ug peptide below 2 times of original peptide))

## NWFPHPC [p4392]
[1]
  Binding Capacity: 1 (weak binding :<4000)
[2]
  Inhibition Capacity: 1 (Weaker than original epitope (OD of 10 ug peptide below 3 times of original peptide))

## SHFRHGC [p4389]
[1]
  Binding Capacity: 2 (medium binding :4000-20000)
[2]
  Inhibition Capacity: 1 (Weaker than original epitope (OD of 10 ug peptide below 3 times of original peptide))

## DGLLFKHC [p4741]
[1]
  Binding Capacity: 3 (strong binding :>20000)
[2]
  Inhibition Capacity: 1 (Weaker than original epitope (OD of 10 ug peptide below 3 times of original peptide))

## HEFRHC [p4803]
[1]
  Binding Capacity: 3 (strong binding :>20000)
[2]
  Inhibition Capacity: 2 (strong inhibition (as original epitope; OD of 10 ug peptide below 2 times of original peptide))

## QDFRHYC [p4380]
[1]
  Binding Capacity: 2 (medium binding :4000-20000)
[2]
  Inhibition Capacity: 1 (Weaker than original epitope (OD of 10 ug peptide below 3 times of original peptide))

## SEFKHC [p4801]
[1]
  Binding Capacity: 3 (strong binding :>20000)
[2]
  Inhibition Capacity: 1 (Weaker than original epitope (OD of 10 ug peptide below 3 times of original peptide))

B1: p4718 (peptide)
peptide: TYFSHSLC
[3]
  OD halfmax 1:X (dilution factor of the parental antibody at half-maximal OD) (dilutionfactor(1:x)): 4000 to 20000

B2: p4721 (peptide)
peptide: SLMRHSSC
[3]
  OD halfmax 1:X (dilution factor of the parental antibody at half-maximal OD) (dilutionfactor(1:x)): 4000 to 20000

B3: p4727 (peptide)
peptide: NELFKHFC
[3]
  OD halfmax 1:X (dilution factor of the parental antibody at half-maximal OD) (dilutionfactor(1:x)): 4000 to 20000

B4: p4729 (peptide)
peptide: SQYFPRPC
[3]
  OD halfmax 1:X (dilution factor of the parental antibody at half-maximal OD) (dilutionfactor(1:x)): 4000 to 20000

B5: p4731 (peptide)
peptide: MLPFRHGC
[3]
  OD halfmax 1:X (dilution factor of the parental antibody at half-maximal OD) (dilutionfactor(1:x)): 4000 to 20000

B6: p4732 (peptide)
peptide: SAMRHSLC
[3]
  OD halfmax 1:X (dilution factor of the parental antibody at half-maximal OD) (dilutionfactor(1:x)): 4000 to 20000

B7: p4734 (peptide)
peptide: LQFKHSTC
[3]
  OD halfmax 1:X (dilution factor of the parental antibody at half-maximal OD) (dilutionfactor(1:x)): 4000 to 20000

B8: p4735 (peptide)
peptide: ATFRHSTC
[3]
  OD halfmax 1:X (dilution factor of the parental antibody at half-maximal OD) (dilutionfactor(1:x)): 4000 to 20000

B9: p4736 (peptide)
peptide: TGLMFKHC
[3]
  OD halfmax 1:X (dilution factor of the parental antibody at half-maximal OD) (dilutionfactor(1:x)): 4000 to 20000

B10: p4737 (peptide)
peptide: AEFSHWHC
[3]
  OD halfmax 1:X (dilution factor of the parental antibody at half-maximal OD) (dilutionfactor(1:x)): 4000 to 20000

B11: p4739 (peptide)
peptide: AEFMHSVC
[3]
  OD halfmax 1:X (dilution factor of the parental antibody at half-maximal OD) (dilutionfactor(1:x)): 4000 to 20000

B12: p4742 (peptide)
peptide: IGFRHDSC
[3]
  OD halfmax 1:X (dilution factor of the parental antibody at half-maximal OD) (dilutionfactor(1:x)): 4000 to 20000

B13: p4751 (peptide)
peptide: AYFPHTSC
[3]
  OD halfmax 1:X (dilution factor of the parental antibody at half-maximal OD) (dilutionfactor(1:x)): 4000 to 20000

B14: p4667 (peptide)
peptide: NDAKIVFC
[4]
  OD halfmax dilution factor of the parental antibody (1:X) (dilutionfactor(1:x)): > 320000

B15: p4669 (peptide)
peptide: GQIRFDHC
[4]
  OD halfmax dilution factor of the parental antibody (1:X) (dilutionfactor(1:x)): > 320000

B16: p4670 (peptide)
peptide: HMRLFFNC
[4]
  OD halfmax dilution factor of the parental antibody (1:X) (dilutionfactor(1:x)): > 320000

B17: p4671 (peptide)
peptide: GEMWFALC
[4]
  OD halfmax dilution factor of the parental antibody (1:X) (dilutionfactor(1:x)): > 320000

B18: p4672 (peptide)
peptide: GELQFPPC
[4]
  OD halfmax dilution factor of the parental antibody (1:X) (dilutionfactor(1:x)): > 320000

B19: p4673 (peptide)
peptide: GELWFPC
[4]
  OD halfmax dilution factor of the parental antibody (1:X) (dilutionfactor(1:x)): > 320000

B20: p4674 (peptide)
peptide: SHQRLWFC
[4]
  OD halfmax dilution factor of the parental antibody (1:X) (dilutionfactor(1:x)): > 320000

B21: p4675 (peptide)
peptide: HQKMIFAC
[4]
  OD halfmax dilution factor of the parental antibody (1:X) (dilutionfactor(1:x)): > 320000

B22: p4676 (peptide)
peptide: GEMQFFIC
[4]
  OD halfmax dilution factor of the parental antibody (1:X) (dilutionfactor(1:x)): > 320000

B23: p4677 (peptide)
peptide: GELYFRAC
[4]
  OD halfmax dilution factor of the parental antibody (1:X) (dilutionfactor(1:x)): > 320000

B24: p4678 (peptide)
peptide: GEIRFALC
[4]
  OD halfmax dilution factor of the parental antibody (1:X) (dilutionfactor(1:x)): > 320000

B25: p4679 (peptide)
peptide: GMIVFPHC
[4]
  OD halfmax dilution factor of the parental antibody (1:X) (dilutionfactor(1:x)): > 320000

B26: p4680 (peptide)
peptide: GEIWFEGC
[4]
  OD halfmax dilution factor of the parental antibody (1:X) (dilutionfactor(1:x)): > 320000

B27: p4681 (peptide)
peptide: GEIYFERC
[4]
  OD halfmax dilution factor of the parental antibody (1:X) (dilutionfactor(1:x)): > 320000

B28: p4683 (peptide)
peptide: GDLKFPLC
[4]
  OD halfmax dilution factor of the parental antibody (1:X) (dilutionfactor(1:x)): > 320000

B29: p4684 (peptide)
peptide: GQILFPVC
[4]
  OD halfmax dilution factor of the parental antibody (1:X) (dilutionfactor(1:x)): > 320000

B30: p4685 (peptide)
peptide: GELFFPKC
[4]
  OD halfmax dilution factor of the parental antibody (1:X) (dilutionfactor(1:x)): > 320000

B31: p4686 (peptide)
peptide: GQIMFPRC
[4]
  OD halfmax dilution factor of the parental antibody (1:X) (dilutionfactor(1:x)): > 320000

B32: p4687 (peptide)
peptide: HMRMYFEC
[4]
  OD halfmax dilution factor of the parental antibody (1:X) (dilutionfactor(1:x)): > 320000

B33: p4689 (peptide)
peptide: GEILFGMC
[4]
  OD halfmax dilution factor of the parental antibody (1:X) (dilutionfactor(1:x)): > 320000

B34: p4690 (peptide)
peptide: GQLKFPFC
[4]
  OD halfmax dilution factor of the parental antibody (1:X) (dilutionfactor(1:x)): > 320000

B35: p4693 (peptide)
peptide: THQRLWFC
[4]
  OD halfmax dilution factor of the parental antibody (1:X) (dilutionfactor(1:x)): > 320000

B36: p4694 (peptide)
peptide: GQIKFAQC
[4]
  OD halfmax dilution factor of the parental antibody (1:X) (dilutionfactor(1:x)): > 320000

B37: p4696 (peptide)
peptide: GEIRFGSC
[4]
  OD halfmax dilution factor of the parental antibody (1:X) (dilutionfactor(1:x)): > 320000

B38: p4697 (peptide)
peptide: GQIQFPLC
[4]
  OD halfmax dilution factor of the parental antibody (1:X) (dilutionfactor(1:x)): > 320000

B39: p4698 (peptide)
peptide: GEIKFDHC
[4]
  OD halfmax dilution factor of the parental antibody (1:X) (dilutionfactor(1:x)): > 320000

B40: p4699 (peptide)
peptide: GEIQFGAC
[4]
  OD halfmax dilution factor of the parental antibody (1:X) (dilutionfactor(1:x)): > 320000
